Assay: soluble on expression in E. coli; label from the status in PepcDB or PDB records

| Sequence | soluble on expression in E. coli |
| --- | --- |
| MFPFGHKGQKIKGTMVVMQKNVLDINSITSVDGIVGTGLDFLGSALDTVTFLASSISIQLISATKADGGKGKVGKATNLRGKITLPTIGAKEEAYDAQFDWDSDFGIPGAFYIKNYMQNEFYLKSLILEDIPNHGTIHFICNSWVYNSKHYKTDRIFFANNTYLPSETPAPLVKYREEELKNVRGDGTGERKEWDRIYDYDVYNDLGDPDKGEKYARPVLGGSALPYPRRGRTGRGKTRKDPNSEKPGDFVYLPRDEAFGHLKSSDFLAYGIKSVAQDVLPVLTDAFDGNLLSLDFDNFAEVRKLYEGGVTLPTNFLSNITPIPIIKELFRTDGEQFLKYPPPKVMQVDKSAWMTDEEFARETIAGLNPNVIKIIEEFPLSSKLDTQAYGDHTCIITKEHLEPNLGGLTVEQAIQNKKLFILDHHDYLIPYLRKINANTTKTYATRTIFFLKNDGTLTPLAIELSKPHPQGEEYGPVSEVYVPSSEGVEAYIWLLAKAYVVVNDACYHQIISHWLNTHAVVEPFVIATNRHLSVVHPIYKLLFPHYRDTMNINSLARKSLVNADGIIEKTFLWGRYSLEMSAVIYKDWVFTDQALPNDLVKRGVAVKDPSAPHGVRLLIEDYPYASDGLEIWDAIKSWVEEYVSFYYKSDEELQKDPELQAWWKELVEVGHGDLKDKPWWQKMQTREELVEASATLIWIASALHAAVNFGQYPYGGLILNRPTISRRFMPEKGSPEYDALAKNPEKEFLKTITGKKETLIDLTIIEILSRHASDEFYLGQRDGGDYWTSDAGPLEAFKRFGKNLEEIEKKLIEKNNDETLRNRYGPAKMPYTLLYPSSEEGLTFRGIPNSISI | soluble |
| MFQMRLNLVIELRDAPGQLVSVLEPLGSTGVNIVTVIHERDREYGPVVPVQLTVEGDRETLDAAIGRLQEQGVNIIEMDGAPLREKFTTILIGDIAEGDLQETVEAVNSVQGASVLDLSLRMSEGRSAARITFEAEHGSRDEVLRRINEAAMERNLLLVSEV | not soluble |
| MFREAELRNGLRVIAEVVPGARSVALGYFVKTGARDETKEESGVSHFLEHMVFKGPEDMDALAVNRAFDRMGAQYNAFTSEEATVYYGAVLPEFAYDLLGLFAKLLRPALREEDFQTEKLVILEEIARYQDRPGFMAYEWARARFFQGHPLGNSVLGTRESITALTREGMAAYHRRRYLPKNMVLAATGRVDFDRLLAEAERLTEAWPEGEAERAYPPLTPAFGVEERPYEKARALYLVALFPGVAYQEEARFPGQVLAHLLGEEGSGRLHFALVDKGLAEVASFGLEEADRAGTFHAYVQADPARKGEVLAVLQEELDRLGREGVGEEEVERAKTPLATGLVFAGETPMQRLFHLGMEYLYTGRYLSLEEVKARVQRVTSREVNALLERGFLEKGLYYLVLPHGA | soluble |
| MFRLSALYRYPIKSSAAESLERVALDALGVVGDRRWMAVDTETGRFFTQRLLPQLGRIQARWAAPEVLRLNAPGMSELSLEVPAADANLRGVTVWRDTLQAPDAGDAAADWLTRFLGRP | not soluble |
| MFRMPIVTMERVDSFSAAHRLHSEKLSDAENKETFGKCNNSNGHGHNYVWKVKLRGEVDPTSGMVYDLAKLKKEMSLVLDTVDHRNLDKDVEFFKTTVSTSENVAIYMFEKLKSVMSNPSVLYKVTIEETPKNIFTYKGS | soluble |
| MFSEELEKIDWEETTKTIYSKTESDVLRALGKEHCDVDDFMALISPAAAKYLEPMAQLSKKYTEERFGKTISMFIPLYITNSCTNSCVYCGFHISNPMARTILTPEQIEDEYKAIKKLGPFENLLLVTGENPAKAGVPYLAKALDIAKKYFSNLKIEVMPLKAEEYAELKEHGLNGVICFQETYNKARYNIYHPRGMKSKFEWRVNGFDRMGQAGVHSIGMGVLIGLEEWRTDVTMMAYHLRYLQKKYWKTKYSVNFPRMRPAENGGFQPNVIMNDRELAQLTFAMRIFDHDVDISYSTREPAQIRDNMAGLGVTTMSAESKTEPGGYYTYPQALEQFHVSDERTAVEVEHALKSLGREPVWKDWDVSFDKFTPIR | not soluble |
| MFSEELIKENENIWRRFLPHKFLIEMAENTIKKENFEKWLVNDYYFVKNALRFMALLMAKAPDDLLPFFAESIYYISKELEMFEKKAQELGISLNGEIDWRAKSYVNYLLSVASLGSFLEGFTALYCEEKAYYEAWKWVRENLKERSPYQEFINHWSSQEFGEYVKRIEKILNSLAEKHGEFEKERAREVFKEVSKFELIFWDIAYGGEGNVLEHHHHHH | soluble |
